Experimental data: US20190077849A1

Assays:
Experiment in all cases: cell-based or functional assay
[1] = target: HIV-1 Env of TH966.8.SG3 pseudovirus (clade AE) (HIV-1)
[2] = target: HIV-1 Env of 6101.10.SG3 pseudovirus (clade B) (HIV-1)
[3] = target: HIV-1 Env of CNE31.SG3 pseudovirus (clade C) (HIV-1)
[4] = target: HIV-1 Env of YU2.DG.SG3 pseudovirus (clade B) (HIV-1) (UniProt P35961)
[5] = target: HIV-1 Env of ZM215.8.SG3 pseudovirus (clade C) (HIV-1)
[6] = target: HIV-1 Env of 6095.V1.C10.SG3 pseudovirus (clade ACD) (HIV-1)
[7] = target: HIV-1 Env of PVO.04.SG3 pseudovirus (clade B) (HIV-1)
[8] = target: HIV-1 Env of ZM106.9.SG3 pseudovirus (clade C) (HIV-1)
[9] = target: HIV-1 Env of KER2008.12.SG3 pseudovirus (clade A) (HIV-1)

Row | Substance | IC50, pseudovirus neutralization [1] | IC50, pseudovirus neutralization [2] | IC50, pseudovirus neutralization [3] | IC50, pseudovirus neutralization [4] | IC50, pseudovirus neutralization [5] | IC50, pseudovirus neutralization [6] | IC50, pseudovirus neutralization [7] | IC50, pseudovirus neutralization [8] | IC50, pseudovirus neutralization [9]
1 | 10E8v4 VL Y32K (antibody) | 10.2 µg/mL | > 50 µg/mL | > 50 µg/mL | > 50 µg/mL | 33 µg/mL | 0.359 µg/mL | > 50 µg/mL | > 50 µg/mL | > 50 µg/mL
2 | 10E8v4 VL Y32L (antibody) | 4.26 µg/mL | 38.6 µg/mL | > 50 µg/mL | > 50 µg/mL | 8.75 µg/mL | 0.593 µg/mL | > 50 µg/mL | > 50 µg/mL | > 50 µg/mL
3 | 10E8v4 VL Y32M (antibody) | 29.8 µg/mL | > 50 µg/mL | > 50 µg/mL | > 50 µg/mL | > 50 µg/mL | 1.03 µg/mL | > 50 µg/mL | > 50 µg/mL | > 50 µg/mL
4 | 10E8v4 VL Y32N (antibody) | > 50 µg/mL | > 50 µg/mL | > 50 µg/mL | > 50 µg/mL | > 50 µg/mL | 2.92 µg/mL | > 50 µg/mL | > 50 µg/mL | > 50 µg/mL
5 | 10E8v4 VL Y32P (antibody) | > 50 µg/mL | > 50 µg/mL | > 50 µg/mL | > 50 µg/mL | > 50 µg/mL | 3.2 µg/mL | > 50 µg/mL | > 50 µg/mL | > 50 µg/mL
6 | 10E8v4 VL Y32Q (antibody) | 11.5 µg/mL | > 50 µg/mL | > 50 µg/mL | > 50 µg/mL | > 50 µg/mL | 0.281 µg/mL | > 50 µg/mL | > 50 µg/mL | > 50 µg/mL
7 | 10E8v4 VL Y32R (antibody) | 4.08 µg/mL | > 50 µg/mL | > 50 µg/mL | > 50 µg/mL | 7.52 µg/mL | 0.152 µg/mL | > 50 µg/mL | > 50 µg/mL | > 50 µg/mL
8 | 10E8v4 VL Y32T (antibody) | 3.76 µg/mL | > 50 µg/mL | > 50 µg/mL | 43.5 µg/mL | 9.25 µg/mL | 0.145 µg/mL | > 50 µg/mL | > 50 µg/mL | > 50 µg/mL
9 | 10E8v4 VL Y32V (antibody) | 4.96 µg/mL | > 50 µg/mL | > 50 µg/mL | > 50 µg/mL | 28.2 µg/mL | 0.558 µg/mL | > 50 µg/mL | > 50 µg/mL | > 50 µg/mL
10 | 10E8v4 VL Y32W (antibody) | 0.029 µg/mL | 0.055 µg/mL | 0.719 µg/mL | 1.07 µg/mL | 0.089 µg/mL | 0.005 µg/mL | 1.4 µg/mL | > 50 µg/mL | > 50 µg/mL
